From PMC3029386, “Determinants Outside the DevR C-Terminal Domain Are Essential for Cooperativity and Robust Activation of Dormancy Genes in Mycobacterium tuberculosis”

Columns and labels:
[1] = target: DevRC (DevR C-terminal domain) (Mycobacterium tuberculosis H37Rv, UniProt P9WMF9 141-217); test: EMSA; settings: protein: recombinant; tags: N-terminal His6 (pET28a, pUS-DevRC); chain copies: 2
[2] = target: DevR (full-length) (Mycobacterium tuberculosis, UniProt P9WMF9 1-217); test: EMSA; settings: protein: recombinant; tags: N-terminal His6 (pAV-DevR); chain copies: 2
Sequence of DevR (full-length) (P9WMF9 whole entry): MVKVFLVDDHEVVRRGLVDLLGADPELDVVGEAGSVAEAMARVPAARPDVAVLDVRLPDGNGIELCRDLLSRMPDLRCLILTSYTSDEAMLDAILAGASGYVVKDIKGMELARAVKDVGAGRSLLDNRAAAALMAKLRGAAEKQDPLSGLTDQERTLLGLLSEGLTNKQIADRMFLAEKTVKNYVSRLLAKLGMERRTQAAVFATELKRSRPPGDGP

Sequence of DevRC (DevR C-terminal domain) (P9WMF9 141-217): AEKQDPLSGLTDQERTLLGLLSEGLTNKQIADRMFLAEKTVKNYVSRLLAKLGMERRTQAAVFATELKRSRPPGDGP

B1: P+S box (LH1/LH2), tgs1-Rv3131 promoter (dsDNA)
DNA 1: CGAGTCGACAGAGCACGAAGGCTCGCCAGCGGAGGACCTTTGGCCCTGCGTCGACCGA
DNA 2: TCGGTCGACGCAGGGCCAAAGGTCCTCCGCTGGCGAGCCTTCGTGCTCTGGTCGACTCG
binding result [1]: binds
binding result [2]: binds
